Assay results published in article PMC9640584, “An active site loop toggles between conformations to control antibiotic hydrolysis and inhibition potency for CTX-M β-lactamase drug-resistance enzymes” (Nature Communications, 2022).

B1: β-lactamase inhibitory protein (BLIP), wild type (natural protein)
chain: AGVMTGAKFTQIQFGMTRQQVLDIAGAENCETGGSFGDSIHCRGHAAGDYYAYATFGFTSAAADAKVDSKSQEKLLAPSAPTLTLAKFNQVTVGMTRAQVLATVGQGSCTTWSEYYPAYPSTAGVTLSLSCFDVDGYSSTGFYRGSAHLWFTDGVLQGKRQWDLV
notes: No removal of the His tag is described; source: E. coli RB791, plasmid pGR32, purified (Co2+ Talon column, gel filtration)

Assays:
Experiment in all cases: enzyme inhibition assay (nitrocefin hydrolysis, Ki by fit to the Morrison equation); increasing concentrations of BLIP incubated with β-lactamase (0.05-0.6 nM) for 20 min, then nitrocefin added; initial velocity at 482 nm; 50 mM sodium phosphate pH 7.0, 100 μg/ml BSA
[1] = biological target: CTX-M-14 N106S β-lactamase
[2] = biological target: CTX-M-15 G240D β-lactamase (Klebsiella pneumoniae)
[3] = biological target: CTX-M-15 N106S β-lactamase (Klebsiella pneumoniae)
[4] = biological target: CTX-M-15 β-lactamase, wild type (Klebsiella pneumoniae)
[5] = biological target: T1, CTX-M-14 β-lactamase, wild type (UniProt Q9L5C7 29-291); conditions: both partners purified
T1 construct: also called CTX-M-14 wild type; source: E. coli BL21(DE3), pET28a, purified (Co2+ Talon, TEV cleavage, Ni2+ Sepharose); not shown: His6, N-terminal, cleaved

| Molecule | Ki [1] | Ki [2] | Ki [3] | Ki [4] | Ki [5] |
| --- | --- | --- | --- | --- | --- |
| β-lactamase inhibitory protein (BLIP), wild type (from UniProt P35804) (natural protein) | 2.1 nM | 5 nM | 0.35 nM | 2.9 nM | – |
| B1 | – | – | – | – | 330 nM |
